Test results as given in US20220218614A1, “IONIZABLE CATIONIC LIPIDS AND LIPID NANOPARTICLES, AND METHODS OF SYNTHESIS AND USE THEREOF” (Tidal Therapeutics, Inc., priority 2020, published 2022).

Assays:
Format in all cases: cell-based
primary human NK cells = assay: LNP transfection of co-cultured human T cells and NK cells: NK cells; details: Lipid 8 LNP, 2.5 ug/mL mRNA, 24 hours
Experimental: CD3-depleted PBMCs were purified using magnetic-based CD3 positive selection and retaining of the negative fraction. 20 million CD3 depleted PBMCs were added to 1 well of a 6 well GREX plate in media containing 10 ng/mL IL-15 for 7 days. On day 7, each well was split in 2 and cells were cultured further in media containing 10 ng/mL IL-15 for an additional 7 days. On day 14, NK cells were concentrated to 1 million cells/mL in preparation for co-transfection with primary human T cells.
LNPs were prepared using the mixing process described in Example 6, the buffer exchange process described in Example 25. The LNPs were formulated using eGFP encoding mRNA (TriLink Biotechnologies, California, US), Lipid 8 as the ionizable lipid, and labeled with 0.01 mol % DiIC18(5)-DS (Invitrogen, Massachusetts, US). Fab-lipid conjugates generated from methods described in Example 4 while generation of Nb-conjugated differed in using 1:1:4 Nb:DSPE-SKPEG-maileimide:DSPE-2KPEG-OCH3 and a 50 kD UF membrane (Millipore Corp, Billerica, Mass. USA) for separation of Nb-conjugate from free Nb. Using methods similar to Example 12, conjugated Fabs and conjugated Nb were post-inserted at various densities (Table 41) into LNPs containing Lipid 8 and GFP mRNA with DiI dye. […]. […]
(§1) 24 hours after LNP transfection, cell culture media was aspirated from T cell and NK cell co-cultures after centrifugation. […] Following acquisition by flow cytometry, T cells and NK cells were analyzed independently using FlowJo (flow cytometry analysis software). In either CD3+ cells (T cells) or CD56+ cells (NK cells), the frequency of GFP positive events relative to GFP negative events was calculated (FIG. 64A). Additionally, the overall fluorescence of GFP was quantified by assessment of mean fluorescence intensity (MFI, FIG. 64B). […] Together, these metrics enabled quantification of LNP transfection efficiency of all targeted LNPs tested in primary human T cell and NK cell co-cultures.

human whole blood = assay: Whole blood transfection of immune cells with Fab targeted mRNA LNPs; details: Lipid 8 LNP, 2.5 μg/mL mCherry mRNA, 24 hours
Experimental: Venous blood from healthy volunteers was anti-coagulated in heparin tubes (BD Biosciences #367526) and seeded at 50 μL in a 96-well round-bottom plate. Transfection of whole blood was carried out simply by adding nanoparticles containing 5 μg/mL mRNA to the cells and co-culturing at 37° C. until the time of analysis. To assess transfection efficiency, cells were analyzed 24-hours post-transfection by flow cytometry. LNPs used (with and without post-inserted targets) at 2.5 μg/mL:RDM073.23. Cells obtained from human blood were analyzed by flow cytometry. Prior to the analysis of whole blood transfection efficiency, red blood cells were lysed twice with VersaLyse Lysing Solution (Beckman Coulter #A09777) for 10 minutes at room temperature. […]
Compensation for each fluorochrome was performed in the multicolor flow panels using positive and negative compensation beads. Fluorescence minus one (FMO) samples and unstained controls were included to determine the level of background fluorescence and to set the gates for the negative cell populations versus the positive cell populations.
All samples were acquired on a BD LSRFortessa X-20 (BD Biosciences) running […] software (Becton Dickinson). All data collected were analyzed using FlowJo 10.7.1 software and GraphPad Prism version 9.0. […]

primary human T cells = assay: LNP transfection of co-cultured human T cells and NK cells: T cells; details: Lipid 8 LNP, 2.5 ug/mL mRNA, 24 hours
Experimental: Primary human T cells were purified using magnetic-based CD3 negative selection. 20 million purified T cells were activated using anti-CD3/anti-CD28 coated beads for 48 hours in media containing 100 IU/mL IL-2. Following activation, activation beads were removed, and T cells were expanded for an additional 48 hours in media containing 100 IU/mL IL-2. After the expansion period, T cells were concentrated to 1 million cells/mL in preparation for co-transfection with primary human NK cells.
LNPs were prepared using the mixing process described in Example 6, the buffer exchange process described in Example 25. […]
as §1

B1: mutOKT8: non-functional mutated OKT8 Fab, SEQ ID NO: 22 and 23 (antibody)
heavy: QVQLVQSGAEDKKPGASVKVSCKASGFNIKDTYIHWVRQAPGQGLEWMGRIDPANDNTLYASKFQGRVTITADTSSNTAYMELSSLRSEDTAVYYCGRGAGAYVFDHWGQGTTVTVSSASTKGPSVFPLAPSSKSTSGGTAALGCLVKDYFPEPVTVSWNSGALTSGVHTFPAVLQSSGLYSLSSVVTVPSSSLGTQTYICNVNHKPSNTKVDKKVEPKSSDKTHTC
light: DIVMTQSPSSLSASVGDRVTITCRTSRSISAALAWYQEKPGKAPKLLIYSGSTLQSGVPSRFSGSGSGTDFTLTISSLQPEDFATYYCQQHNENPLTFGQGTKVEIKRTVAAPSVFIFPPSDEQLKSGTASVVCLLNNFYPREAKVQWKVDNALQSGNSQESVTEQDSKDSTYSLSSTLTLSKADYEKHKVYACEVTHQGLSSPVTKSFNRGES
- transfection of NK cells in T/NK co-culture (% GFP, GFP MFI, DiI), in words (primary human NK cells): high % DiI and % GFP
- % mCherry+ cells (transfection) in whole blood, in words (human whole blood): did not exhibit transfection of any of the immune cell types
- transfection of T cells in T/NK co-culture (% GFP, GFP MFI, DiI), in words (primary human T cells): high % DiI and % GFP
